Test results published in publication PMC10366140.

System: apRAD51C-CTD-1 R258H (Alvinella pompejana)
Experiment: fluorescence polarization
Details: FP: 20 mM HEPES pH 8, 80 mM NaCl, 2.5 mM ATP, 2.5 mM MgCl2, 1 mM DTT, 0.1 mg/mL BSA, 10 nM DNA, 37 C 20 min, EMSA: 20 mM Tris pH 8.0, 150 mM KCl, 4 C 15 min

TTTTTTTTTTTTTTTTTTTT [poly-20dT] gave a Kd of 36.5 µM.
